Blank lines part the entries; values can stand above or below the binder they belong to.
Key:
hCD155-Fc [1] = target: T1, hCD155-Fc (human, UniProt P15151 21-343, limits assumed); assay: Dual ELISA: hCD155-Fc capture, hLTBR-His detection, 6x His HRP
T1 construct: not shown: Fc, not identified
T1 sequence (looked up): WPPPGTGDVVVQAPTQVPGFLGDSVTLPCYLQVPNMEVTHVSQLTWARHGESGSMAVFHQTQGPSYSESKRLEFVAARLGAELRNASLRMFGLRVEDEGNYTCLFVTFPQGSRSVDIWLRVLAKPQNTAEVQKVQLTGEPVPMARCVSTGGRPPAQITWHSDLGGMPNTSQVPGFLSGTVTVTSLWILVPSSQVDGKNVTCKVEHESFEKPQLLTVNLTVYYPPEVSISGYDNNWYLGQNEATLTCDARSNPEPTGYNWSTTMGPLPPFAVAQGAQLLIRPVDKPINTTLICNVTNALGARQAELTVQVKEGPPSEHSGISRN

human LTBR-His = target: T2, human LTBR-His (human, UniProt P36941 31-227, limits assumed); assay: as above
T2 construct: also called hLTBR-His
T2 sequence (P36941 31-227 limits assumed): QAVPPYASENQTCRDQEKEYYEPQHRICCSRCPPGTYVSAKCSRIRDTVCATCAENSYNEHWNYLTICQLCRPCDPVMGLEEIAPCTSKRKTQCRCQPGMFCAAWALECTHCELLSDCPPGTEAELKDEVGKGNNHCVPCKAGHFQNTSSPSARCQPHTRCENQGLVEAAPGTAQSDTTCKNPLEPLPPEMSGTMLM

[2] = target: T3, recombinant human CD155PVR (human, UniProt P15151 21-343, limits assumed); assay: biolayer interferometry (Octet), hPVR; concentration not given
T3 sequence (looked up): T1 sequence (looked up)

recombinant human LTbR = recombinant human LTbR (human, UniProt P36941 31-227, limits assumed); assay: biolayer interferometry (Octet), human LTbR
recombinant human LTbR, sequence (P36941 31-227 limits assumed): as above

CD47-His = target: T4, CD47-His; assay: ELISA: CD47-His capture, IgG detection
T4 construct: ELISA capture protein used with both murine and human chimeras

[3] = target: T5, mouse CD47 on CHO-K1 cells (mouse, UniProt Q61735 19-303); assay: flow cytometry on CHO-K1 cells expressing murine CD47
T5 construct: whole, on cells; also called mCD47 engineered cell line; mCD47 over-expressing cell line
T5 sequence (looked up): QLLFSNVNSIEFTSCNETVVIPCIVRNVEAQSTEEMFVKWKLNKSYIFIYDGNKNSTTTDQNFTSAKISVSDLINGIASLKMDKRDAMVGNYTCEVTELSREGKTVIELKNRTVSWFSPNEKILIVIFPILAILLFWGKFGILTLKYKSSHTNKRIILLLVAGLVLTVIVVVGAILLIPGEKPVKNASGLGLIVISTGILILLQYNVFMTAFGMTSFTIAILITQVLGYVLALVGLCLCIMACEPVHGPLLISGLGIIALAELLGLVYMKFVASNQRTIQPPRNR

[4] = target: T6, mouse OX40 on CHO-K1 cells (mouse, UniProt P47741 20-272); assay: flow cytometry on CHOK1-mOX40 cells
T6 construct: whole, on cells; also called CHOK1-mOX40
T6 sequence (looked up): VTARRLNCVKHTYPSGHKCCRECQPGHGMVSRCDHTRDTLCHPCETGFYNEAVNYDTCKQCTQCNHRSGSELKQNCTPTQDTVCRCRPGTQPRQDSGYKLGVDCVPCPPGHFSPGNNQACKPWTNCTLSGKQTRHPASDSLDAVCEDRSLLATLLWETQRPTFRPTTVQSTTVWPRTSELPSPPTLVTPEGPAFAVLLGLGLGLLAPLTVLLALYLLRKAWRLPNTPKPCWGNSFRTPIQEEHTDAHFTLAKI

CD155PVR-His = target: T7, CD155PVR-His; assay: ELISA: 'CD115/PVR Capture' as printed (legend: CD155PVR-His), Fc-HRP detection
T7 construct: ELISA capture protein used with both murine and human chimeras; also called CD155-His

[5] = target: T8, mouse PVR on CHO-K1 cells (mouse); assay: flow cytometry on CHOK1/PVR cells
T8 construct: whole, on cells; also called CHOK1/PVR; mPVR engineered cell line

OX40-Fc = target: T9, OX40-Fc; assay: Dual ELISA: OX40-Fc capture, CD155-His detection, 6X His HRP (signal needs both OX40-Fc and CD155-His bound)
T9 construct: Capture protein of the dual ELISA

NECTIN4 = target: T10, NECTIN4 (human, UniProt Q96NY8); assay: microarray of about 6,000 human membrane proteins
T10 construct: on the microarray of human membrane proteins; also called Nectin Cell Adhesion Molecule 4
T10 sequence (looked up): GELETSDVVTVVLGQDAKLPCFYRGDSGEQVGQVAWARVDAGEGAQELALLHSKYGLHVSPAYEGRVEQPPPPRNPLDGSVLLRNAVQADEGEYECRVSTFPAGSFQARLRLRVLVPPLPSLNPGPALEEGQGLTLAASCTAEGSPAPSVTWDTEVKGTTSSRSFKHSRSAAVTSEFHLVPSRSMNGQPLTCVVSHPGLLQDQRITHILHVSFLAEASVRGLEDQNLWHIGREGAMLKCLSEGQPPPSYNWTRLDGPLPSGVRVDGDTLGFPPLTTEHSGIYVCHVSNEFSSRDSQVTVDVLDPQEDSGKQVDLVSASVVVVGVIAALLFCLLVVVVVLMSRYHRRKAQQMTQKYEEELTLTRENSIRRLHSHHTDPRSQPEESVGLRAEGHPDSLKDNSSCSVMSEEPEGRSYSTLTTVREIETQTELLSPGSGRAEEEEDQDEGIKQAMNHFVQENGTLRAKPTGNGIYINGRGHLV

Galectin-1 = Galectin-1 (human, UniProt P09382 2-135, limits assumed); assay: microarray of about 6,000 human membrane proteins
Galectin-1, sequence (P09382 2-135 limits assumed): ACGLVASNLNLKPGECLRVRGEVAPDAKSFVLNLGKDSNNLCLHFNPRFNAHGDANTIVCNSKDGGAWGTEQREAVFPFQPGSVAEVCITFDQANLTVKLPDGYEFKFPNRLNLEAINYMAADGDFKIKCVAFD

PVR = target: T11, PVR (human, UniProt P15151); assay: microarray of about 6,000 human membrane proteins
T11 construct: on the microarray of human membrane proteins; also called Poliovirus Receptor
T11 sequence (looked up): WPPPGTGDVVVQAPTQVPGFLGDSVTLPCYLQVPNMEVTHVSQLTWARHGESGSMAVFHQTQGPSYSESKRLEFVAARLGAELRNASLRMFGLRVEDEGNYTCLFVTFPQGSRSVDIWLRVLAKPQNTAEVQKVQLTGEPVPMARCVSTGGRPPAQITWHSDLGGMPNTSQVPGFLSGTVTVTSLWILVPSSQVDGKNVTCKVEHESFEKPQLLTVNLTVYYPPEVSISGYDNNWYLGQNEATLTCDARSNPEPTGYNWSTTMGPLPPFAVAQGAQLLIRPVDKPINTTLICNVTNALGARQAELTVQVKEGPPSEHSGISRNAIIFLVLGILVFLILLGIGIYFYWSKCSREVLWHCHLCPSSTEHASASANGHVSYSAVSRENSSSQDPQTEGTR

TNFRSF4 = target: T12, TNFRSF4; assay: microarray of about 6,000 human membrane proteins
T12 construct: also called TNF Receptor Superfamily Member 4
T12 chain: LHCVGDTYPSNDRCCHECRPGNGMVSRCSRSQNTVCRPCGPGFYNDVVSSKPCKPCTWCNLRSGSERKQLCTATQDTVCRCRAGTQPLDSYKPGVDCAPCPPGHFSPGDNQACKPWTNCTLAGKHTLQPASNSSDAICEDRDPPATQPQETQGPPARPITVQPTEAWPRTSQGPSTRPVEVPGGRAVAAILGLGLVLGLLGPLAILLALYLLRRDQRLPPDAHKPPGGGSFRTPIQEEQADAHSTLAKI

hCD155-Fc [6] = target: T1, hCD155-Fc; assay: ELISA as printed: CD155-Fc capture, goat anti-hOX40L detection, anti-goat HRP (legend says CD155PVR-His capture, IgG detection)

B1: human TIGIT-Fc-LIGHT chimeric protein (Fc fusion)
chain: MMTGTIETTGNISAEKGGSIILQCHLSSTTAQVTQVNWEQQDQLLAICNADLGWHISPSFKDRVAPGPGLGLTLQSLTVNDTGEYFCIYHTYPDGTYTGRIFLEVLESSVAEHGARFQIPSKYGPPCPPCPAPEFLGGPSVFLFPPKPKDQLMISRTPEVTCVVVDVSQEDPEVQFNWYVDGVEVHNAKTKPREEQFNSTYRVVSVLTVLHQDWLSGKEYKCKVSSKGLPSSIEKTISNATGQPREPQVYTLPPSQEEMTKNQVSLTCLVKGFYPSDIAVEWESNGQPENNYKTTPPVLDSDGSFFLYSRLTVDKSRWQEGNVFSCSVLHEALHNHYTQKSLSLSLGKIEGRMDLQLHWRLGEMVTRLPDGPAGSWEQLIQERRSHEVNPAAHLTGANSSLTGSGGPLLWETQLGLAFLRGLSYHDGALVVTKAGYYYIYSKVQLGGVGCPLGLASTITHGLYKRTPRYPEELELLVSQQSPCGRATSSSRVWWDSSFLGGVVHLEAGEKVVVRVLDERLVRLRDGTRSYFGAFMV
notes: also called hTIGIT-Fc-LIGHT; hTIGIT-1-Fc-LIGHT
binding result (hCD155-Fc [1]): binds | binding result (human LTBR-His): binds | binding result [2]: binds | binding result (recombinant human LTbR): binds

B4: human TIGIT-Fc-OX40L chimeric protein (Fc fusion)
chain: MMTGTIETTGNISAEKGGSIILQCHLSSTTAQVTQVNWEQQDQLLAICNADLGWHISPSFKDRVAPGPGLGLTLQSLTVNDTGEYFCIYHTYPDGTYTGRIFLEVLESSVAEHGARFQIPSKYGPPCPPCPAPEFLGGPSVFLFPPKPKDQLMISRTPEVTCVVVDVSQEDPEVQFNWYVDGVEVHNAKTKPREEQFNSTYRVVSVLTVLHQDWLSGKEYKCKVSSKGLPSSIEKTISNATGQPREPQVYTLPPSQEEMTKNQVSLTCLVKGFYPSDIAVEWESNGQPENNYKTTPPVLDSDGSFFLYSRLTVDKSRWQEGNVFSCSVLHEALHNHYTQKSLSLSLGKIEGRMDQVSHRYPRIQSIKVQFTEYKKEKGFILTSQKEDEIMKVQNNSVIINCDGFYLISLKGYFSQEVNISLHYQKDEEPLFQLKKVRSVNSLMVASLTYKDKVYLNVTTDNTSLDDFHVNGGELILIHQNPGEFCVL
notes: also called hTIGIT-Fc-OX40L
binding result [2]: binds | binding result (NECTIN4): binds | binding result (Galectin-1): binds | binding result (PVR): binds | binding result (TNFRSF4): binds | binding result (hCD155-Fc [6]): binds

The remaining lines, values ahead:

EC50 (read off the curve) (CD47-His): ~4 nM | EC50 [3]: 18 nM
B2: murine CD172a(SIRPα)-Fc-LIGHT chimeric protein (Fc fusion)
chain 1: KELKVTQPEKSVSVAAGDSTVLNCTLTSLLPVGPIRWYRGVGPSRLLIYSFAGEYVPRIRNVSDTTKRNNMDFSIRISNVTPADAGIYYCVKFQKGSSEPDTEIQSGGGTEVYVLAKPSPPEVSGPADRGIPDQKVNFTCKSHGFSPRNITLKWFKDGQELHPLETTVNPSGKNVSYNISSTVRVVLNSMDVNSKVICEVAHITLDRSPLRGIANLSNFIRVSPTVKVTQQSPTSMNQVNLTCRAERFYPEDLQLIWLENGNVSRNDTPKNLTKNTDGTYNYTSLFLVNSSAHREDVVFTCQVKHDQQPAITRNHTVLGFAHSSDQGSMQTFPDNNATHNWN
chain 2: LHQRLGDIVAHLPDGGKGSWEKLIQDQRSHQANPAAHLTGANASLIGIGGPLLWETRLGLAFLRGLTYHDGALVTMEPGYYYVYSKVQLSGVGCPQGLANGLPITHGLYKRTSRYPKELELLVSRRSPCGRANSSRVWWDSSFLGGVVHLEAGEEVVVRVPGNRLVRPRDGTRSYFGAFMV

EC50 [4]: 1.7 nM | EC50 (read off the curve) (CD155PVR-His): ~4 nM | EC50 [5]: 4.63 nM | EC50 (read off the curve) (OX40-Fc): ~8 nM
B3: murine TIGIT-Fc-OX40L chimeric protein (Fc fusion)
chain 1: TIDTKRNISAEEGGSVILQCHFSSDTAEVTQVDWKQQDQLLAIYSVDLGWHVASVFSDRVVPGPSLGLTFQSLTMNDTGEYFCTYHTYPGGIYKGRIFLKVQESSDDRNGLAQFQTAPLG
chain 2: SSSPAKDPPIQRLRGAVTRCEDGQLFISSYKNEYQTMEVQNNSVVIKCDGLYIIYLKGSFFQEVKIDLHFREDHNPISIPMLNDGRRIVFTVVASLAFKDKVYLTVNAPDTLCEHLQINDGELIVVQLTPGYCAPEGSYHSTVNQVPL

Reference: patent US20240190939A1 (SHATTUCK LABS, published 2024)
